From patent US20230002497A1 (INSERM INSTITUT NATIONAL DE LA SANTE ET DE LA RECHERCHE …, published 2023) come the findings set out here.

The assay has as its target T1, recombinant human IL-20Rb (human, UniProt Q6UXL0 30-233).
T1 construct: also called human recombinant IL-20RB; recombinant IL-20RB
T1 sequence: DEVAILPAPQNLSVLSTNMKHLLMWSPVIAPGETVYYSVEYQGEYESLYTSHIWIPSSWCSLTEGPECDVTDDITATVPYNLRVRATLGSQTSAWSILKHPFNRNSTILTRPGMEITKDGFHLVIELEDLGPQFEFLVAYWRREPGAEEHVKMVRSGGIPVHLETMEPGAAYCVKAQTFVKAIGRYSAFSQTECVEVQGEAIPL
Briefly: ELISA on coated recombinant IL-20Rb (FIG. 8).

B1: B7 antibody (native B7 clone), human anti-IL-20Rb antibody (antibody, mouse IgG2a, V domains shown)
VH: EVQLVESGGSLVKPGGSLRLSCAASGFTFSNYSMNWVRQAPGKGLEWISYISGSSRYISYADFVKGRFTISRDNATNSLYLQMNSLRAEDTAVYYCVRSYYGMDVWGRGTLVTVSS
VL: QSVLTQPASVSGSPGQSITISCAGTSSDVGGNYYVSWYQQHPGKAPKLMIYGDSYRPSGVSNRFSGSKSGNTASLTISGLQAEDEADYYCSSYTYYSTRVFGGGTKLAVLG
For the molecule B1, the binding result is reported as “binds”.
